How the values were obtained:
E. coli = assay: Conjugate penetration into bacterial cells, flow cytometry; assay type: cell-based, Escherichia coli; conditions: 1 µM conjugate in LB medium, 1 h at 37°C, 3'-fluorescein label, mean ± SD from four independent experiments
A. baumannii = assay: as above; assay type: cell-based, Acinetobacter baumannii; conditions: 1 µM conjugate in LB medium, 1 h at 37°C, 3'-fluorescein label, mean ± SD from four independent experiments

Row | Substance | Level of penetration, %, E.coli (E. coli) | Level of penetration, %, A. baumannii (A. baumannii) | Level of penetration, %, A. baumannii (A. baumannii; listed as 5’-Pept2 -pgd-inh3- Flu) [%]
1 | 5’-Pept1-d(CAAGCAGCxCxTxAxCxCxC)–Flu-3’ [5'-Pept1-pgd-inh3-Flu, 5’-Pept1 conjugate of pgd-inh3 with 3’-fluorescein] | 4,1±0,1% | 1,8±0,2% | 
2 | 5’-Pept2-d(CAAGCAGCxCxTxAxCxCxC)–Flu-3’ [5'-Pept2-pgd-inh3-Flu, 5’-Pept2 conjugate of pgd-inh3 with 3’-fluorescein] | 5,3±0,3% | 6,5±0,5% | 6.5
3 | 5’-Pept3-d(CAAGCAGCxCxTxAxCxCxC)–Flu-3’ [5'-Pept3-pgd-inh3-Flu, 5’-Pept3 conjugate of pgd-inh3 with 3’-fluorescein] | 7,0±1% | 1,7±0,3% | 
4 | 5’-Pept4-d(CAAGCAGCxCxTxAxCxCxC)–Flu-3’ [5'-Pept4-pgd-inh3-Flu, 5’-Pept4 conjugate of pgd-inh3 with 3’-fluorescein] | 6,4±0,2% | 2,0±0,3% | 
